Laboratory results taken from patent US6548641 (MAX PLANCK GESELLSCHAFT ZUR FORDERUNG DER WISSENSCHAFTEN E V, dated 2003).

Molecular target: T1, epidermal growth factor receptor (EGF-R) (UniProt P00533 25-1210)
T1 construct: also called EGF receptor
Test: co-immunoprecipitation with mAb 108.1 from 293 transfectants, immunoblot with anti-PTP antisera
Method: To standardize the experimental parameters, three chimeric RPTKs having EGF-R extracellular domains were tested (HER1-2, EK-R, EP-R) (Seedorf, K. et al., *J. Biol Chem.* 266:12424 (1991)), as was EGF-R itself (FIG. 8).
The precipitates were extensively washed, boiled in SDS sample buffer, and analyzed by 7.5% SDS-PAGE.

binding result: no binding
B1: PTP 1C protein tyrosine phosphatase (mouse) (enzyme)
chain: not shown
notes: Overexpressed transiently in human 293 cells
